# Results from patent US6432645B1, “Beta subunits of Slo family potassium channels” (ICAgen Inc., priority 1999, dated 2002).
# Columns and labels:
# [1] = molecular target: T1, Slo-1/BKB3 (Homo sapiens, UniProt Q12791); experiment: Whole-cell voltage-clamp of membrane currents in HEK293 cells co-expressing Slo-1 and BK beta 3; assay type: cell-based; details: Slo-1 + BK beta 3 in HEK293 cells, 250 ms depolarizing steps from holding potential -80 mV; for sensitivity (block) of membrane currents: CTX 100 nM
# T1 construct: expressed in transfected cells; host or cells: HEK293
# Experimental: (§1) FIGS. 6A-B. Slo-1/BKB3 forms BK type II-like charybdotoxin—(CTX) insensitive channels. Slo-1 (A) or Slo-1+BK beta 3 (B) were expressed in HEK293 cells and membrane currents measured using the whole-cell voltage-clamp technique. […]. In contrast, membrane currents in cells co-expressing Slo-1 and BK beta 3 were TEA (5 mM) sensitive but CTX (100 nM) insensitive (FIG. 6B). Similar recordings were made from 4 cells expressing Slo-1 alone and 6 cells co-expressing Slo-1/BKB3. Scale bars represent 1 nA and 200 ms.
# [2] = molecular target: T2, Slo-1 (Homo sapiens, UniProt Q12791); experiment: Whole-cell voltage-clamp of membrane currents in HEK293 cells expressing Slo-1 alone; assay type: cell-based; design: expressed in transfected cells; host or cells: HEK293; details: Slo-1 alone in HEK293 cells, 250 ms depolarizing steps from holding potential -80 mV; for inhibition (block) of membrane currents: CTX 100 nM
# Experimental: as §1
# [3] = molecular target: T2, Slo-1; experiment: cell-based or functional assay
# T2 sequence (Q12791 whole entry): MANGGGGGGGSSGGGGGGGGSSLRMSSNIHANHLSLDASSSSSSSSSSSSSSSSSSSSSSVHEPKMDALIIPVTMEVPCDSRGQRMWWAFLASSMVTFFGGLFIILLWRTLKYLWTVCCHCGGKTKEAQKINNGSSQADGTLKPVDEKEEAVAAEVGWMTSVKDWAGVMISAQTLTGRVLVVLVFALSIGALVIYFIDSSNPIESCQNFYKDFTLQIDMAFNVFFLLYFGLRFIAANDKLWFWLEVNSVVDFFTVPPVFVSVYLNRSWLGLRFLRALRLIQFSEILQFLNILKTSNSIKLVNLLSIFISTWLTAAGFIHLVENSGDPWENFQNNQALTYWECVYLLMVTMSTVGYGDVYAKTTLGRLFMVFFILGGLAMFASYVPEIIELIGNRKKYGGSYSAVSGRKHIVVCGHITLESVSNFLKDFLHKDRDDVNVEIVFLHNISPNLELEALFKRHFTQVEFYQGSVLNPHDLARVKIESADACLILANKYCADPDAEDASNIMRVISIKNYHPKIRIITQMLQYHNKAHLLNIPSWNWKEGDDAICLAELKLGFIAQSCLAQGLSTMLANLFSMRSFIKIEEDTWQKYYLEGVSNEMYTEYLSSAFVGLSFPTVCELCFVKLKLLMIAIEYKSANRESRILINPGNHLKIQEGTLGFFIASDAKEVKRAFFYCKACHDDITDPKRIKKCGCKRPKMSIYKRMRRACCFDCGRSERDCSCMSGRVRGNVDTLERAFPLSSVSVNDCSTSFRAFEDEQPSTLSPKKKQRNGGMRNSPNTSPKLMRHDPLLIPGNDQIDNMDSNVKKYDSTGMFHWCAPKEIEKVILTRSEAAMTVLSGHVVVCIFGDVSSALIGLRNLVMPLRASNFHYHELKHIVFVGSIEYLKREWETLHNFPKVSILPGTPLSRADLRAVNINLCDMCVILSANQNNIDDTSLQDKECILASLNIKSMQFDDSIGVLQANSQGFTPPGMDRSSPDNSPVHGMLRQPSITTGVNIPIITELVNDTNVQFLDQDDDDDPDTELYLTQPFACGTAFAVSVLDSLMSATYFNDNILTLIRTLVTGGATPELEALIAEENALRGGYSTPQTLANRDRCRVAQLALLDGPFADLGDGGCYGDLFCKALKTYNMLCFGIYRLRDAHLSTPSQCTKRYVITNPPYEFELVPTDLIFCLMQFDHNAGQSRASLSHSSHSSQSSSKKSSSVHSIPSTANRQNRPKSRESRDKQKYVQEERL
# T1 sequence (Q12791 whole entry): as above
# T1 sequence (Q86W47 whole entry W137E partner): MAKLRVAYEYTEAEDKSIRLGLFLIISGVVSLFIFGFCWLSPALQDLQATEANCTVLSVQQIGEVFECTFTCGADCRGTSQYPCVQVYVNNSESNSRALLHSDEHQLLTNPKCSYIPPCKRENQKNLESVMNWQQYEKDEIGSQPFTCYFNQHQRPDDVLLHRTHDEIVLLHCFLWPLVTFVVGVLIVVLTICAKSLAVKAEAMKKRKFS
compound,measurement,setting,value
charybdotoxin [CTX],sensitivity (block) of membrane currents,[1],insensitive
same,sensitivity (block) of membrane currents,[1]; listed as charybdotoxin,virtually unblocked
same,inhibition (block) of membrane currents,[2],strongly inhibited
same,inhibition (block) of membrane currents,[2]; listed as charybdotoxin,almost completely blocked
human BK beta 3,"shift of the Slo-1 activation curve (V1/2 act), patch clamp, 50 uM free Ca2+",[3],15 mV
CC[N+](CC)(CC)CC [TEA],sensitivity of membrane currents,[1]; TEA 5 mM,sensitive
same,inhibition of membrane currents,[2]; TEA 5 mM,strongly inhibited
